Measured values reported in patent publication US20220213181A1 (Novartis, published 2022).
Each block holds one binder with its values, some of them ahead of it.

Columns and labels:
[1] = molecular target: T1, Rat ANGPTL4(24-405)-FLAG-His6-Avi (rat, UniProt Q6TMA8 24-405, biotin on the C-terminal Avi tag (BirA) where the protein is immobilised); assay: Octet (ForteBio) kinetics; average KD of the runs; Octet kinetics; average KD of the three rat runs
T1 sequence: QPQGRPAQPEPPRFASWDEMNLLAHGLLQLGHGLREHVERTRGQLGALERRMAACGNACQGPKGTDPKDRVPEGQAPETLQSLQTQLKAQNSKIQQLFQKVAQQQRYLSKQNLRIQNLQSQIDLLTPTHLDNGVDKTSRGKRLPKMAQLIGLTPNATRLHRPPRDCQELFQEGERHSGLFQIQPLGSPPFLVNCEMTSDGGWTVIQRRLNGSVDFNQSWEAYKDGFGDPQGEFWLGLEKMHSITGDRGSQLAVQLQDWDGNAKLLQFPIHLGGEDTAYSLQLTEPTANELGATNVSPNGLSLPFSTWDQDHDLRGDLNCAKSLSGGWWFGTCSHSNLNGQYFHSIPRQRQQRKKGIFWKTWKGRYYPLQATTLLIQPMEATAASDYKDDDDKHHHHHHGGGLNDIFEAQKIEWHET

[2] = molecular target: T1, Rat ANGPTL4(24-405)-FLAG-His6-Avi; assay: Octet (ForteBio) kinetics, biotinylated antigen on streptavidin sensor, IgG in solution; Octet kinetics, rat ANGPTL4 on the sensor, antibody up to 25 nM; run 1
[3] = molecular target: T1, Rat ANGPTL4(24-405)-FLAG-His6-Avi; assay: Octet (ForteBio) kinetics, biotinylated antigen on streptavidin sensor, IgG in solution; Octet kinetics; run 3 on rat ANGPTL4
[4] = molecular target: T2, Human ANGPTL3(17-460)-FLAG-His-Avi (human, UniProt Q9Y5C1 17-460, biotin on the C-terminal Avi tag (BirA)); assay: Octet (ForteBio) kinetics; average KD of the runs; no binding at 25 nM
T2 construct: also called full length human ANGPTL3; hANGPTL3
T2 sequence: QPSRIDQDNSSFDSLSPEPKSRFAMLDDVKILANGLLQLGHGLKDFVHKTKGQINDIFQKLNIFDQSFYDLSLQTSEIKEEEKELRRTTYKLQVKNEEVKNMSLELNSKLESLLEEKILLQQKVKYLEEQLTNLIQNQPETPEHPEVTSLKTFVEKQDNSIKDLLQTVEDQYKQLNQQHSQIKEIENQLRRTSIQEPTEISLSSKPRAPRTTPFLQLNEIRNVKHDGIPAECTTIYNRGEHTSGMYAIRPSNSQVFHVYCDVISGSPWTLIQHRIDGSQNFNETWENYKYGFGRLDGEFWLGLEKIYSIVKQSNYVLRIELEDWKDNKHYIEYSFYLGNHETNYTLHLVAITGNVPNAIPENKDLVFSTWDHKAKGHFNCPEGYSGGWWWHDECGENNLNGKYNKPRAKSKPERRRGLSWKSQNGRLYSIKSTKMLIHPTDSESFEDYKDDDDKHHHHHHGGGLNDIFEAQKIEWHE

[5] = molecular target: T3, Human ANGPTL4(26-406)-FLAG-His6-Avi (human, UniProt Q9BY76 24-406, biotin on the C-terminal Avi tag (BirA) where the protein is immobilised); assay: Octet (ForteBio) kinetics, biotinylated antigen on streptavidin sensor, IgG in solution; slower than the limit of detection (about 5e-6 s^-1)
T3 construct: the text calls it 20 amino acids), then QP, ANGPTL4 26-406 and FLAG-His6-Avi; the signal peptide is left out here; also called full length human ANGPTL4; hANGPTL4
T3 sequence: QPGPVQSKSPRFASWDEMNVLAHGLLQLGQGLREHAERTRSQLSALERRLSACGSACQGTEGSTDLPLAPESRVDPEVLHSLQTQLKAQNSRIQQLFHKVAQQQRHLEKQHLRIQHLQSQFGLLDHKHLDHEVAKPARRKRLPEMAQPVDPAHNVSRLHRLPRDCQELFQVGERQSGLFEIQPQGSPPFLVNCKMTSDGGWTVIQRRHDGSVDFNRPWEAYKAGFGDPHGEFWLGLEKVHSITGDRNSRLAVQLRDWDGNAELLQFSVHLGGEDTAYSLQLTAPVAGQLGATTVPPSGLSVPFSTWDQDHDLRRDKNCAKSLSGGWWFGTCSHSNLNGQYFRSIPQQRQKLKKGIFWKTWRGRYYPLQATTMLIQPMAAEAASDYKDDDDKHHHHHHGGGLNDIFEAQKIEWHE
Protocol: (§1) Dissociation constants (KD) were determined for selected antibodies of the invention by using an Octet (ForteBio) kinetic binding assay. ForteBio 10× Kinetics Buffer (ForteBio, catalog number 18-5032) was diluted 10-fold with DPBS (Life Technologies, catalog number 14190-136), and the resulting solution was added (0.2 ml per well) to a 96-well plate (Greiner, catalog number 65520). Streptavidin sensors (ForteBio, catalog number 18-5020) were immersed in the solution and equilibrated for at least 10 min at room temperature. In a second 96-well plate (Greiner, catalog number 65520), sensors were washed in 1× Kinetics buffer, and then immersed in 200 ul of 25 nM biotinylated human ANGPTL4 or a biotinylated reference protein (for background subtraction) for 1000 sec at […] room temperature. […] The sensors were then transferred to a well containing 200 μl 1× Kinetics buffer, and antibody dissociation was monitored for 1200 seconds. Background-corrected association and dissociation curves were globally fitted by Octet Software (ForteBio) to generate association (kₐ) and dissociation (kd) rate constants, which in turn were used to calculate equilibrium dissociation constants (KD).

[6] = molecular target: T3, Human ANGPTL4(26-406)-FLAG-His6-Avi; assay: Octet (ForteBio) kinetics, biotinylated antigen on streptavidin sensor, IgG in solution; upper limit by the footnote
Protocol: as §1

Kd [1]: 6.34 nM
Kd [2]: 7.47 nM
koff [2]: 0.0012 s⁻¹
kon [2]: 160000 M⁻¹ s⁻¹
Kd [3]: 5.53 nM
koff [3]: 0.00028 s⁻¹
kon [3]: 52000 M⁻¹ s⁻¹
Kd [4]: > 6 nM
B1: NEG276-LALA (antibody, human IgG1, kappa, L234A L235A)
heavy: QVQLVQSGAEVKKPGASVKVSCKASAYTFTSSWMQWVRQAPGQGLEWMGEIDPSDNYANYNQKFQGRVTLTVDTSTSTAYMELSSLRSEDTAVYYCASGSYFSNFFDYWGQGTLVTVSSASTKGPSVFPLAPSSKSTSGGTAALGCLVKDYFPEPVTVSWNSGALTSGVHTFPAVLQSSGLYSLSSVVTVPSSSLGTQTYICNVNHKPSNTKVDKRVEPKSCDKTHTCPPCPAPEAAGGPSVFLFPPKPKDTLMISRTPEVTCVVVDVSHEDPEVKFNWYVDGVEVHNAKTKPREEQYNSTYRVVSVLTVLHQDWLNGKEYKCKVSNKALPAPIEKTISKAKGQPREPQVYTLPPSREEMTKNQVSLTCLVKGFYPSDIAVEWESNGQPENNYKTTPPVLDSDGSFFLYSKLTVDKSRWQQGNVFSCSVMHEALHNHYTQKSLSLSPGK
light: EIVMTQSPATLSVSPGERATLSCKASQDIGSNLNWLQQKPGQAPRRLIYAVSNRGPGIPARFSGSRSGSEYTLTISSLQSEDFAVYYCLQYASSPWTFGQGTKVEIKRTVAAPSVFIFPPSDEQLKSGTASVVCLLNNFYPREAKVQWKVDNALQSGNSQESVTEQDSKDSTYSLSSTLTLSKADYEKHKVYACEVTHQGLSSPVTKSFNRGEC

koff [5]: 6.7e-07 s⁻¹
Kd [6]: ≤ 0.017 nM
B2: NEG278 (antibody, human IgG1, kappa, V domains shown)
VH: QVQLVQSGAEVKKPGASVKVSCKASAYTFTSSWMQWVRQAPGQGLEWMGEIDPSDNYANYNQKFQGRVTLTVDTSTSTAYMELSSLRSEDTAVYYCASGSYFSNFFDYWGQGTLVTVSS
VL: EIVMTQSPATLSVSPGERATLSCKASQDIGSNLNWLQQKPGQAPRRLIYAASVREPGIPARFSGSRSGSEYTLTISSLQSEDFAVYYCLQYASSPWTFGQGTKVEIKR
notes: humanized, hIgG1/kappa, parental antibody 19C16
